Assay results reported in publication PMC5430435.

What was measured:
[1] = biological target: human LH/CGR (wild type, without BRET fusion) (human) (UniProt P22888)
[2] = biological target: hLH/CGR C-terminally fused to the BRET donor Rluc8 (human) (UniProt P22888)
[3] = biological target: mouse LHR endogenously expressed in mLTC-1 cells (mouse (endogenous in mLTC-1)) (UniProt P30730)
UniProt P30730, sequence (P30730 27-700): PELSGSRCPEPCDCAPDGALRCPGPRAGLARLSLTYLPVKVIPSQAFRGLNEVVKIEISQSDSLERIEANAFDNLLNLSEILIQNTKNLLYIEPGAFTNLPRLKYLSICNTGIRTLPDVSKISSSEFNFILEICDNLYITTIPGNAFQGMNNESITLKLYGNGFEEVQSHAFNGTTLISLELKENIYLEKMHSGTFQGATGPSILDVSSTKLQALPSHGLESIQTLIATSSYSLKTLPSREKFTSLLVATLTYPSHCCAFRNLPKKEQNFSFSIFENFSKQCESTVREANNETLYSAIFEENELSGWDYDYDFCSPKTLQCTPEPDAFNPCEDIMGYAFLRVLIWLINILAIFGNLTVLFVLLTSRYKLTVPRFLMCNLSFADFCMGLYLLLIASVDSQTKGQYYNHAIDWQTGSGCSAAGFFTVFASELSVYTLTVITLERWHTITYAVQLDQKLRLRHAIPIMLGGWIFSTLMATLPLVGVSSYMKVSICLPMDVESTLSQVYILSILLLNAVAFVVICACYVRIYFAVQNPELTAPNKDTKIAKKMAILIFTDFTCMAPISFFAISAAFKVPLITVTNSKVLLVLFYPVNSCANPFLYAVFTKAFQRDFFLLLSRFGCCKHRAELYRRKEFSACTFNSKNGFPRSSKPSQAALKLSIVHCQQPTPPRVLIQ

| Cre-reporter assay (pSOM-Luc luciferase) in HEK293 cells expressing hLH/CGR, 6 hours with increasing doses; EC50 [1] | cAMP production (BRET sensor CAMYEL) in HEK293 cells expressing hLH/CGR, 30 minutes with increasing doses; EC50 [1] | β-arrestin 2 recruitment (BRET between hLH/CGR-Rluc8 and yPET-β-arrestin 2) in HEK293 cells, 30 minutes with increasing doses; EC50 [2] | Cre-reporter assay (pSOM-Luc luciferase) in mLTC-1 cells, 6 hours with increasing doses; EC50 [3] | cAMP (BRET sensor CAMYEL) in mLTC-1 cells, 30 minutes with increasing doses; EC50 [3] | cAMP (HTRF) in native mLTC-1 cells, 30 minutes with increasing doses; EC50 [3] | progesterone production by mLTC-1 cells (ELISA of supernatants), 3 hours with increasing doses; EC50 [3] | testosterone production by mLTC-1 cells (HTRF of supernatants), 3 hours with increasing doses; EC50 [3] | Substance |
| --- | --- | --- | --- | --- | --- | --- | --- | --- |
| 215 pM | 0.286 nM | 129 nM | 318 pM | 0.459 nM | 1.98 nM | 0.306 nM | 0.0291 nM | human recombinant luteinizing hormone rhLH (Luveris) (from UniProt P01215 25-116; P01229 21-141) (ligand) |
| 37.5 pM | 0.0176 nM | 10.3 nM | 25 pM | 0.0688 nM | 0.0974 nM | 0.0197 nM | 0.00219 nM | recombinant human chorionic gonadotropin rhCG (Ovitrelle) (from UniProt P01215 25-116; P0DN86 21-165) (ligand) |
